According to US20230203197A1 (UNIVERSITE DE TOUR, published 2023):
Read-outs that look alike come from different tables or passages of the source.

How the values were obtained:
[1] = molecular target: T1, neutrophil proteinase 3 (PR3), purified native human PR3 (human, UniProt P24158 28-248); assay: BIACORE (SPR)
T1 construct: Also used in denatured form in western blot and as the antigen of the EuroImmun anti-PR3 kit; also called native PR3
T1 sequence: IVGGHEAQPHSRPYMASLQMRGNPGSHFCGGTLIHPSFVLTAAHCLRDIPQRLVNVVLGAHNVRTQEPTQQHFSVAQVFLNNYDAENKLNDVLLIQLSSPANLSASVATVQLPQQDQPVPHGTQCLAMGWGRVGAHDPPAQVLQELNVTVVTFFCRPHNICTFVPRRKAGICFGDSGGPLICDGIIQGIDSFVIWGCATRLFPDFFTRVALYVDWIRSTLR

OVA [2] = molecular target: T2, OVA; assay: specificity ELISA on different coated antigens (n=5)
T2 construct: One of the antigens of group m15; also called ovalbumin
T2 chain: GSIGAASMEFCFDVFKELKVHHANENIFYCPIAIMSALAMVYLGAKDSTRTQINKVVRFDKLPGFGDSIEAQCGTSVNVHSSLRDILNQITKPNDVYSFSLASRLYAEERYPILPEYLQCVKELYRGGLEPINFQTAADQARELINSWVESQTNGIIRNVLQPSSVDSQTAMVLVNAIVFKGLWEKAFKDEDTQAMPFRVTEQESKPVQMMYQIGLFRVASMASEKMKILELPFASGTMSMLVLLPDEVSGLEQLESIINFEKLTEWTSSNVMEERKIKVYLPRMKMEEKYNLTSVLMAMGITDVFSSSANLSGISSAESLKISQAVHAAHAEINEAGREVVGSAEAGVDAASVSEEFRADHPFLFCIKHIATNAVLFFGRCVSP

[3] = molecular target: T3, peptide 4C3_3.2 of PR3, biotinylated (human, biotinylated (position not given)); assay: HTRF: anti-Fab antibody coupled to d2 on 4C3, terbium-streptavidin on the biotinylated peptide; ratio, baseline-corrected
T3 construct: also called peptide 3.2
Experimental: The identification of the epitope recognised by the 4C3 antibody was carried out by MabSilico. The first step enabled the PR3 epitope to be modelled using the MabTope method, which consists of the computer prediction of an ordered list of PR3 peptides likely to belong to the epitope from the sequence of the variable part (VH and VL) of 4C3 (FIGS. 4B and 4C). The second step allowed the experimental measurement of the specific binding of a number of these peptides to the antibody. This measurement was made by HTRF (Homogeneous Time Resolved Fluorescence) between an anti-Fab d2-coupled antibody (CisBio™) which binds to the antibody of interest, and a terbium-coupled streptavidin (CisBio™) which binds to the biotinylated peptide (FIG. 4D).

BSA = molecular target: T4, BSA (bovine, UniProt P02769); assay: ELISA, compared with coated PR3
T4 construct: in the ELISA well; also called Bovine Serum Albumin

Cathepsin G (Cath G) = molecular target: T5, Cathepsin G (Cath G) (UniProt P08311 21-244); assay: western blot, 4C3 as the primary antibody
T5 sequence (looked up): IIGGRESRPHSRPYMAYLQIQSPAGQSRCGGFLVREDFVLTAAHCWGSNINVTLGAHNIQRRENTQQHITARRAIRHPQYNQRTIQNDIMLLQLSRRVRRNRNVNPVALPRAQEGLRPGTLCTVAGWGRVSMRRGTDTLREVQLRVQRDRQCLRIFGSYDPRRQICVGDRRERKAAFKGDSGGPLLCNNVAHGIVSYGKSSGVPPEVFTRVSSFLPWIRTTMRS
Excerpt: (§1) To confirm anti-PR3 specificity, 4C3 was used as a primary antibody in western blot (FIGS. 8A and 8B) on protein lysates from neutrophils, HeLa cells (ATCC® CCL-2™) and human PR3.

Elastase = molecular target: T6, Elastase (UniProt P08246 30-247, limits assumed); assay: western blot, 4C3 as the primary antibody
T6 sequence (looked up): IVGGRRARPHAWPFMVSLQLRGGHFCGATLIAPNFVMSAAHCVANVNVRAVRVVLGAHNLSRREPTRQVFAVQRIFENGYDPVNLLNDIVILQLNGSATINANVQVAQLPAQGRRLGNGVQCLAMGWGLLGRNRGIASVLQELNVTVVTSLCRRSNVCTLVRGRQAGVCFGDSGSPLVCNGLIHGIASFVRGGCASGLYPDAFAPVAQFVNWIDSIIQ
Excerpt: as §1

[4] = molecular target: T1, neutrophil proteinase 3 (PR3), purified …; assay: BIACORE (SPR); remark: listed apart in the source
OVA [5] = molecular target: T2, OVA; assay: ELISA, compared with coated PR3

T4 sequence (P02769 25-607 limits assumed): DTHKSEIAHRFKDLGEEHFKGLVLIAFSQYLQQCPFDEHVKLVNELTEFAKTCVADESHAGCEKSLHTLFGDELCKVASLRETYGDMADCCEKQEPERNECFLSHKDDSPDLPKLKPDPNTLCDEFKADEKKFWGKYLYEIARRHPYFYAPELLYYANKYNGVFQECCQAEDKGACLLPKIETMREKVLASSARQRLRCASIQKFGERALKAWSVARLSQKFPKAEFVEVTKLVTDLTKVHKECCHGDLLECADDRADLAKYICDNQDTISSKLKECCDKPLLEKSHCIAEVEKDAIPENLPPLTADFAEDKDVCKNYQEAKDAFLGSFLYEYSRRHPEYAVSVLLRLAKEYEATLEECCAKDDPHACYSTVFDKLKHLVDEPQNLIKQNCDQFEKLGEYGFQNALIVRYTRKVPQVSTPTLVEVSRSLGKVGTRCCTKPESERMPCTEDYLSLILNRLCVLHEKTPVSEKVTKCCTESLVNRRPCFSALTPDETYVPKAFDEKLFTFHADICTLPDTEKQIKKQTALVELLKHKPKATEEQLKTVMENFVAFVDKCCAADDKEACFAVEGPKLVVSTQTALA

B1: human monoclonal anti-proteinase 3 (PR3) 4C3 antibody, G1m3-1 allotype (antibody, human IgG1, kappa)
heavy: not shown
light: DIQMTQSPPTLSASVGDRVTITCRASQSISDWLAWYQQKPGKPPQLLIYKASSLESGVPSRFSGTGSGAEFTLTISSLQPDDSATYYCQQYNSYSNTFGQGTKLEIKRTVAAPSVFIFPPSDEQLKSGTASVVCLLNNFYPREAKVQWKVDNALQSGNSQESVTEQDSKDSTYSLSSTLTLSKADYEKHKVYACEVTHQGLSSPVTKSFNRGEC
notes: also called MAb 4C3; AcMo 4C3
B1 was tested, and the Kd [1] was 741 pM, the koff [1] was 0.00936 s⁻¹ and the kon [1] was 1.26e+07 M⁻¹ s⁻¹. B1: no binding (OVA [2]); binds [3]; no binding (BSA). B1: no binding (tested: 5 µg per lane) (Cathepsin G (Cath G)); no binding (tested: 5 µg per lane) (Elastase).

B2: recombinant 4C3 antibody (r4C3), G1m17-1 allotype (antibody, human IgG1, kappa)
heavy: not shown
light: B1 light
notes: Produced in HEK-293 cells; differs from 4C3 only by R>K at position 224 of the heavy chain constant region
Work on B2 yielded a Kd [4] of 684 pM, a koff [4] of 0.00936 s⁻¹ and a kon [4] of 1.37e+07 M⁻¹ s⁻¹. B2: no binding (tested: 1 µg/ml (coating of Ova)) (OVA [5]); no binding (BSA).
